Molecular target: human proliferating cell nuclear antigen (PCNA), no tag (human, UniProt P12004 1-261)
Assay: fluorescence polarisation

Sequence of human proliferating cell nuclear antigen (PCNA), no tag (P12004 whole entry): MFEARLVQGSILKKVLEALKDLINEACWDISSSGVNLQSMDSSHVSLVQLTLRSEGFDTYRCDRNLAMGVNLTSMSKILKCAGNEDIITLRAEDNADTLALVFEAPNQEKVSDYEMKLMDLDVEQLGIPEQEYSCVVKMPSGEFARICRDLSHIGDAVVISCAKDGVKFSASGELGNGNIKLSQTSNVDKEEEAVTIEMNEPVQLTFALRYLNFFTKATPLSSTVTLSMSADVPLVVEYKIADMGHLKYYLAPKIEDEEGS

B1: trivalent p21 peptide (peptide)
chain: KRRQTSMTDFYHSKRRLIFSGGSGGSGGSGGSGGSGGSKRRQTSMTDFYHSKRRLIFSGGSGGSGGSGGSGGSGGSKRRQTSMTDFYHSKRRLIFS
What does the source list for B1?
IC50: 600 nM; Kd: 2.2 ± 0.2 nM

B2: divalent p21 peptide (peptide)
chain: KRRQTSMTDFYHSKRRLIFSGGSGGSGGSGGSGGSGGSKRRQTSMTDFYHSKRRLIFS
How did the IC50 turn out when B2 was run?
The IC50 was 1000 nM.

What about the Kd of the same binder?
Its Kd is 30 ± 2 nM.
